Reference: patent US10918733B2, “Lipopeptide- and lipoprotein-conjugates and its use” (HELMHOLTZ-ZENTRUM FUER INFEKTIONSFORSCHUNG GMBH, priority 2009, dated 2021)

Experiments:
[1] = tested on: Ova-specific CD4+ T cells; experiment: Proliferation of CFSE-stained T cells co-cultured with treated DC: CD4+ T cells; type: cell-based, OT2-tg mice; conditions: DC incubated with 10 μg/mL for 24 h, co-culture 4 days
Protocol: T cell-mediated immune responses were investigated 96 h by measuring the proliferation of cells recovered from spleens after restimulation with BPPcysOva^mPEG. Non-Ag restimulated spleen cells were chosen as negative controls (FIG. 3). […] Taking into consideration that the BPPcysOva^mPEG has a promising effect on DC activation and maturation, next the capacity of these APC to stimulate the proliferation of antigen-specific CD8+ and CD4+ T cells was evaluated. Concentrations below 10^−8 M of BPPcysOva^mPEG were still able to induce an antigen specific proliferation of CD4+ T cells shown by the reduction of CFSE+ cells (FIGS. 4A-E).
FIG. 4: Proliferation of CD8+, CD4+ and regulatory T cells. DC were generated from bone marrow of C57BL/6 mice and incubated with 10 μg/mL of B) Ova C) Ova peptides, D) Ova in the presence of BPPcysMPEG and E) BPPcysOva^mPEG alone (A) Control) for 24 h. The following day, CD4+ T cells from spleens of OT2-tg animals or CD8+ T cells of OT1-tg animals were isolated. After staining with CFSE, CD8+, CD4+ T cells were co-cultured with adjuvant-treated DCs for 4 days. The decrease of CFSE-FITC expression due to cell division of CD8+ or CD4+ T cells were analysed by flow cytometric analysis. One representative experiment out of two is shown.

[2] = tested on: peritoneal macrophages from C3H/HeJ mice; experiment: Nitrogen monoxide release assay (macrophage activation); type: cell-based; conditions: with rIFN-γ, 45-48 hours; compared with the known BPPcysMPEG
Protocol: Experimental protocol: In brief, peritoneal macrophages from C3H/HeJ mice were used as the macrophage source. They were cultured in 96-well microtiter plates and stimulated simultaneously with rIFN-γ and a serial dilution of macrophage activator. Insofar as necessary, the macrophage activators were dissolved in 25 mM octylglucoside in the first dilution step and then diluted further with medium (i.e. R-Malp-2). After an incubating time of 45-48 hours, the nitrate was reduced with nitrate reductase and the starting substance nitrogen monoxide was determined, as the sum of nitrate and nitrite, using Griess' reagent. 1 unit (U)/ml is defined as the dilution at which half-maximal stimulation takes place.
FIG. 2: Nitrogen monoxide release assay. Peritoneal macrophages from C3H/HeJ mice were used as the macrophage source. They were cultured in 96-well microtiter plates and stimulated simultaneously with rIFN-γ and a serial dilution of macrophage activator. After an incubating time of 45-48 hours, the nitrate was reduced with nitrate reductase and the starting substance nitrogen monoxide was determined, as the sum of nitrate and nitrite, using Griess' reagent.

[3] = tested on: Ova-specific IgG1 antibodies; experiment: Serum Ova-specific antibody titers after immunization (ELISA); type: in vivo, C57BL6 mice; conditions: i.n.; by the end of the immunization protocol
Protocol: Experimental protocol 1: six-eight weeks-old female C57BL6 mice were purchased from Harlan Winkelmann GmbH (Borchen, Germany) and treated in accordance with local and European Community guidelines. Groups of 5 mice each were immunized on day 1, 14 and 28 with 30 μg of Ova (Sigma Chemie, Deisenhofen, Germany) or LPS-free Ova (EndoGrade Ovalbumin, Hyglos GmbH) alone, co-administered with 5 μg of BPPcysMPEG or with 5 to 10 μg of synthetic BPPcysOva^mPEG alone. For intranasal (i.n.) immunization, 10 μl were applied to each naris, whereas for the s.c. the compounds were resuspended in 50 μl of PBS per dose. Serum samples were collected at different time points (day 0, 13, 27 and 38) after immunization and stored at −20° C. prior to determination of Ova-specific antibodies. 96-well Nunc-Immuno MaxiSorp assay plates (Nunc, Roskilde, Denmark) were coated with 100 μl of Ova (Sigma Chemie, Deisenhofen, Germany) at 5 μg/ml in 0.05 M carbonate buffer (pH 8.2) per well. […] Endpoint titers were expressed as the reciprocal log2 of the last dilution, which gave an optical density at 405 nm of 0.1 units above the values of the negative controls after 15 to 30 min of incubation. […]
FIG. 5: Humoral responses stimulated following vaccination using BPPcysOva^mPEG. […] At day 38 post primary immunisation, serum samples were collected and the IgG 1 and IgG2c titres of Ova-specific antibodies were determined by ELISA. […]

B1: Ova: model antigen ovalbumin (Sigma Chemie) (protein, UniProt P01012 2-386, looked up)
Ovalbumin: GSIGAASMEFCFDVFKELKVHHANENIFYCPIAIMSALAMVYLGAKDSTRTQINKVVRFDKLPGFGDSIEAQCGTSVNVHSSLRDILNQITKPNDVYSFSLASRLYAEERYPILPEYLQCVKELYRGGLEPINFQTAADQARELINSWVESQTNGIIRNVLQPSSVDSQTAMVLVNAIVFKGLWEKAFKDEDTQAMPFRVTEQESKPVQMMYQIGLFRVASMASEKMKILELPFASGTMSMLVLLPDEVSGLEQLESIINFEKLTEWTSSNVMEERKIKVYLPRMKMEEKYNLTSVLMAMGITDVFSSSANLSGISSAESLKISQAVHAAHAEINEAGREVVGSAEAGVDAASVSEEFRADHPFLFCIKHIATNAVLFFGRCVSP
- stimulation of proliferation of Ova-specific CD4+ T cells by treated DC [1]: weak stimulation
- potential for activating macrophages (NO secretion) [2]: no potency
- Ova-specific IgG1 endpoint titer in serum [3]: ≤ 10^6
